The target of experiment [1] is T1, FLAG-CD19-ECD-GGSG-NLuc-AcV5 (human).
T1 construct: the entry includes the signal peptide; also called CD19-GGSG-NLuc-AcV5; CD19-GGSG-NLuc fusion protein
T1 chain: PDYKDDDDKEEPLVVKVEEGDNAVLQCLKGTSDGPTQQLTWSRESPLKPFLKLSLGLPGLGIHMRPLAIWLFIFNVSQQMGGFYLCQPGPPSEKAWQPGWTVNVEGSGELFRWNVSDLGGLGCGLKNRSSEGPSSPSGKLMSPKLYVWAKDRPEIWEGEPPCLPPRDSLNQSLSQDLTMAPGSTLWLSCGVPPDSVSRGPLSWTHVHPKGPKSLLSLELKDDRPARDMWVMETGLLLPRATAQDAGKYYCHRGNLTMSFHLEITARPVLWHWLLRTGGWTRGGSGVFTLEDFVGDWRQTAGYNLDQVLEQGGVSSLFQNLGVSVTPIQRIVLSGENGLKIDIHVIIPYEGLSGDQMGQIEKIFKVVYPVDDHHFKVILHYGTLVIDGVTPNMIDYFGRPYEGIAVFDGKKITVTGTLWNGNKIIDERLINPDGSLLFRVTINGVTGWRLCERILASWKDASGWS
Briefly: NLuc assay: CAR-T cells incubated with CD19-GGSG-NLuc-AcV5 supernatant.

Another experiment deals with T2, MPL-ECD-GGSG-Nluc-AcV5 (human).
T2 construct: the entry includes the native signal peptide; also called MPL-GGSG-NLuc-AcV5; MPL-GGSG-NLuc AcV5
T2 chain: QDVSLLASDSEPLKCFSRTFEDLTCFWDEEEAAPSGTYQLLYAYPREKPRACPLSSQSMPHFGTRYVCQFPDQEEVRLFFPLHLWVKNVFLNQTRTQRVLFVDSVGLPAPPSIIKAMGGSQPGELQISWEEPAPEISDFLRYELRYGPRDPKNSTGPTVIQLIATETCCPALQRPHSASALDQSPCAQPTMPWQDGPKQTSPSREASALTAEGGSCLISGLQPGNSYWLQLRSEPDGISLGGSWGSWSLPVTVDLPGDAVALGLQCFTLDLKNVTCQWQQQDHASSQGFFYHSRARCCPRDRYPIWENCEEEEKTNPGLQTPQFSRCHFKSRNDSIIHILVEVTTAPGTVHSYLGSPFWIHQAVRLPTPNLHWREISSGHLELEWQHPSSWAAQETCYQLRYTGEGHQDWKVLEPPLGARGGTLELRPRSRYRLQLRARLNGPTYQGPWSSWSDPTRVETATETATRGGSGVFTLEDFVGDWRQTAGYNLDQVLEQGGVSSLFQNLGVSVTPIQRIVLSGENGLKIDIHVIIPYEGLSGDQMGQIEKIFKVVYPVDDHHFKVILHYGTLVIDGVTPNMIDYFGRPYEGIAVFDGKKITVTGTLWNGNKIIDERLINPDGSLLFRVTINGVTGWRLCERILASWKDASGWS
In words: NLuc assay: CAR-T cells incubated with MPL-GGSG-NLuc-AcV5 supernatant.

Experiment [2] concerns the target T3, human MPL (thrombopoietin receptor) (human, UniProt P40238 26-635).
T3 construct: whole, on cells; also called c-MPL; c-Mpl
T3 sequence (looked up): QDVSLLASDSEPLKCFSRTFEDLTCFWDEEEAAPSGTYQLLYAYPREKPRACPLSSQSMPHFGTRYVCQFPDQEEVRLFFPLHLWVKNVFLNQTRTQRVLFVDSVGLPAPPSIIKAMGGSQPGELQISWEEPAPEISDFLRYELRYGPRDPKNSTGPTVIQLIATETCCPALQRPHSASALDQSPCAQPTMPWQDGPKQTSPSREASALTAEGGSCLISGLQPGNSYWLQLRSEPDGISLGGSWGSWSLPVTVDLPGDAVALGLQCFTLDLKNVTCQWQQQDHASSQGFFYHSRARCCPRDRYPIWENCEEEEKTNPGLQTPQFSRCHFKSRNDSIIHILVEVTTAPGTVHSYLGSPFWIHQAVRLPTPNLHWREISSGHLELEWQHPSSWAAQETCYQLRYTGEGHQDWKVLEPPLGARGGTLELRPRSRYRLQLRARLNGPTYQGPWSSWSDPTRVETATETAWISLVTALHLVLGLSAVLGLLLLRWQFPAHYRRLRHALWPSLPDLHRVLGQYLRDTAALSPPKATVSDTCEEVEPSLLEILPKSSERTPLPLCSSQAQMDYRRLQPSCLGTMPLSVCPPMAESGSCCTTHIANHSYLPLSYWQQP
Briefly: NLuc luminescence of scFv-NLuc fusion supernatant bound to washed cells.

The target of experiment [3] is T1, FLAG-CD19-ECD-GGSG-NLuc-AcV5. Briefly: NLuc assay: CAR on Jurkat-NFAT-Luc cells incubated with FLAG-CD19-ECD-GGSG-NLuc-AcV5 supernatant.

B1: CD8SP-175-(vL-vH)-Myc-CD28z-T2A-PAC(031615-Q04) (scFv)
chain: DQIVLTQSPAIMSASPGEKVTISCSASSSVSYMYWYQQKPGSSPKPWIYRTSNLASGVPARFSGSGSGTSYSLTISNMEAEDAAAYYCQQYHSYPTTFGGGTKLEVKGGGGSGGGGSGGGGSEVQLVESGGGLVQPKGSLKLSCAASGFSFNTYAMNWVRQAPGKGLEWIAHIRSKSNNFATYYADSVKDRFSISRDASENILFLQMNNLKTEDTAMYYCVRQGGDFPMDYWGQGTSVTVSSTREQKLISEEDLKIEVMYPPPYLDNEKSNGTIIHVKGKHLCPSPLFPGPSKPFWVLVVVGGVLACYSLLVTVAFIIFWVRSKRSRLLHSDYMNMTPRRPGPTRKHYQPYAPPRDFAAYRSRVKFSRSADAPAYQQGQNQLYNELNLGRREEYDVLDKRRGRDPEMGGKPRRKNPQEGLYNELQKDKMAEAYSEIGMKGERRRGKGHDGLYQGLSTATKDTYDALHMQALPPRSSGSGEGRGSLLTCGDVEENPG
notes: CAR on cells; entry = whole encoded polyprotein incl; CD8 signal peptide and T2A-PAC
For the molecule B1, the binding result in experiment [1] is recorded as “no binding”.

B2: CD8SP-4C3-(vL-vH)-Myc-CD28z-T2A-Pac(031615-W05) (scFv)
chain: DIVMTQSPSSLTMSVGQKVTMSCKSSHSLLNSRNQKNYLAWFQQKPGQSPKLLVYFASTRESGVPDRFIGSGSGTDFTLTISNVQAEDLADYFCQQHYTTLPTFGGGTKLEIKGGGGSGGGGSGGGGSQIQLVQSGPDLKKPGETVKISCKASGYTFTNTGMNWVKQAPGKGLKWMGWINTYTGEPTYADDFKGRFTFSLETSASTAYLQINNLKNEDTATYFCTRWGYGSSLYYAMDYWGQGTSVTVSSTREQKLISEEDLKIEVMYPPPYLDNEKSNGTIIHVKGKHLCPSPLFPGPSKPFWVLVVVGGVLACYSLLVTVAFIIFWVRSKRSRLLHSDYMNMTPRRPGPTRKHYQPYAPPRDFAAYRSRVKFSRSADAPAYQQGQNQLYNELNLGRREEYDVLDKRRGRDPEMGGKPRRKNPQEGLYNELQKDKMAEAYSEIGMKGERRRGKGHDGLYQGLSTATKDTYDALHMQALPPRSSGSGEGRGSLLTCGDVEENPG
notes: also called control CAR 4C3
Consider B2, for which the binding result with MPL-ECD-GGSG-Nluc-AcV5 was “no binding”.

B3: CD8SP-161-(vL-vH)-Myc-CD28z-T2A-PAC(021715-Z07) (scFv)
chain: DDIQMTQSSSSFSVSLGDRVTITCMASEDIYIRLAWYQQKPGNAPRLLISAATSLETGVPSRFSGSGSGKDYTLSITSLQTEDVGTYYCQQYWSSPWTFGGGTKLEINGGGGSGGGGSGGGGSDVQLQESGPGLVKPSQSLSLTCTVTGYSITSDYTWNWIRQFPGNKLEWMGYITYSGSTSYNPSLKSRNSITRDTSKNQFFLQLNSVTTEDTATYYCARLGRRYTMDYWGQGTSVTVSSTREQKLISEEDLKIEVMYPPPYLDNEKSNGTIIHVKGKHLCPSPLFPGPSKPFWVLVVVGGVLACYSLLVTVAFIIFWVRSKRSRLLHSDYMNMTPRRPGPTRKHYQPYAPPRDFAAYRSRVKFSRSADAPAYQQGQNQLYNELNLGRREEYDVLDKRRGRDPEMGGKPRRKNPQEGLYNELQKDKMAEAYSEIGMKGERRRGKGHDGLYQGLSTATKDTYDALHMQALPPRSSGSGEGRGSLLTCGDVEENPG
notes: as for B1
Regarding B3, the binding result in experiment [1] is listed as “no binding”.

B4: CD8SP-AB317-(vL-vH)-Myc-CD28z-T2A-PAC(031615-T04) (scFv)
chain: DIVLTQSPASLAVSLGQSVTISCRASESVEYYGTSLMQWYQQKPGQPPKLLIYGASNVESGVPARFSGSGSGTDFSLNIHPVEEDDIAMYFCQQSRKVPWTFGGGTKLEIKGGGGSGGGGSGGGGSEVKLVESGGGLVKPGGSRKLSCAASGFTFSSYTMSWVRQTPAKRLEWVATISSGSSTIYYADTVKGRFTISRDNAKNTLFLQMTSLRSEDTAMYYCARRWFLDCWGQGTTLTVSSTREQKLISEEDLKIEVMYPPPYLDNEKSNGTIIHVKGKHLCPSPLFPGPSKPFWVLVVVGGVLACYSLLVTVAFIIFWVRSKRSRLLHSDYMNMTPRRPGPTRKHYQPYAPPRDFAAYRSRVKFSRSADAPAYQQGQNQLYNELNLGRREEYDVLDKRRGRDPEMGGKPRRKNPQEGLYNELQKDKMAEAYSEIGMKGERRRGKGHDGLYQGLSTATKDTYDALHMQALPPRSSGSGEGRGSLLTCGDVEENPG
notes: as for B1
On to B4, for which, in experiment [1], the binding result is “no binding”.

B5: CD8SP-12E10-(vL-vH)-Myc-CD28z-T2A-PAC(031615-S03) (scFv)
chain: DQVQLQQSGPGLVKPSETLSLTCTVSGDSISSYYWSWIRQPPGKGLEWIGYIYYSGSTNYNPSLKSRVTISVDTSKSQFSLKLSSVTAADTAVYYCARGRYFDVWGRGTMVTSSGGGGSGGGGSGGGGSSSYVLTQPPSVSGSPGQSITISCTGTSSDVGGYNYVSWYQQHPGKAPKLMIYEGSKRPSGVSNRFSGSKSGNTASLTISGLQAEDEADYYCSSYTTRSTRVFGGGTKLTVLGAAATREQKLISEEDLKIEVMYPPPYLDNEKSNGTIIHVKGKHLCPSPLFPGPSKPFWVLVVVGGVLACYSLLVTVAFIIFWVRSKRSRLLHSDYMNMTPRRPGPTRKHYQPYAPPRDFAAYRSRVKFSRSADAPAYQQGQNQLYNELNLGRREEYDVLDKRRGRDPEMGGKPRRKNPQEGLYNELQKDKMAEAYSEIGMKGERRRGKGHDGLYQGLSTATKDTYDALHMQALPPRSSGSGEGRGSLLTCGDVEENPG
notes: as for B1
As for B5, in experiment [1], the binding result was “no binding”.

B6: CD8SP-161-(vL-vH)-GGSG-NLuc-AcV5 (scFv)
scFv: DDIQMTQSSSSFSVSLGDRVTITCMASEDIYIRLAWYQQKPGNAPRLLISAATSLETGVPSRFSGSGSGKDYTLSITSLQTEDVGTYYCQQYWSSPWTFGGGTKLEINGGGGSGGGGSGGGGSDVQLQESGPGLVKPSQSLSLTCTVTGYSITSDYTWNWIRQFPGNKLEWMGYITYSGSTSYNPSLKSRNSITRDTSKNQFFLQLNSVTTEDTATYYCARLGRRYTMDYWGQGTSVTVSSTRGGSGVFTLEDFVGDWRQTAGYNLDQVLEQGGVSSLFQNLGVSVTPIQRIVLSGENGLKIDIHVIIPYEGLSGDQMGQIEKIFKVVYPVDDHHFKVILHYGTLVIDGVTPNMIDYFGRPYEGIAVFDGKKITVTGTLWNGNKIIDERLINPDGSLLFRVTINGVTGWRLCERILASWKDASGWS
notes: the entry includes the CD8 signal peptide
With B6, the binding result in experiment [2] is recorded as “binds”.

B7: CD8SP-KSHV-4C3-(vL-vH)-Myc-BBz-T2A-PAC(042315-N01) (scFv)
chain: DIVMTQSPSSLTMSVGQKVTMSCKSSHSLLNSRNQKNYLAWFQQKPGQSPKLLVYFASTRESGVPDRFIGSGSGTDFTLTISNVQAEDLADYFCQQHYTTLPTFGGGTKLEIKGGGGSGGGGSGGGGSQIQLVQSGPDLKKPGETVKISCKASGYTFTNTGMNWVKQAPGKGLKWMGWINTYTGEPTYADDFKGRFTFSLETSASTAYLQINNLKNEDTATYFCTRWGYGSSLYYAMDYWGQGTSVTVSSTREQKLISEEDLAKPTTTPAPRPPTPAPTIASQPLSLRPEACRPAAGGAVHTRGLDFACDIYIWAPLAGTCGVLLLSLVITLYCKRGRKKLLYIFKQPFMRPVQTTQEEDGCSCRFPEEEEGGCELRVKFSRSADAPAYQQGQNQLYNELNLGRREEYDVLDKRRGRDPEMGGKPRRKNPQEGLYNELQKDKMAEAYSEIGMKGERRRGKGHDGLYQGLSTATKDTYDALHMQALPPRSSGSGEGRGSLLTCGDVEENPG
notes: also called control CAR 4C3
Consider B7, for which the binding result in experiment [3] is “no binding”.

The values above are taken from patent US20240166755A1 (UNIVERSITY OF SOUTHERN CALIFORNIA, published 2024).
